Patent publication US9987329B2, “Methods for treating peripheral nerve damage” (Cornell University, priority 2014, dated 2018)

Tested on: corneal nerves of C57BL/6 and Vegf-b−/− mice
Assay: Corneal nerve regeneration after epithelial debridement, subconjunctival injection
Format: in vivo, mouse
Conditions: 0.5 ng subconjunctival single bolus, 7 days after debridement
Method: Wild type C57BL/6 and Vegf-b^-/- mice were subject to corneal epithelial debridement as described above or left intact. A 5 ul volume containing 0.5 ng VEGF-B^186 in PBS was injected subconjunctivally, at the lateral temporal bulbar conjunctiva, using a 10-μl micro-syringe (Hamilton Co). Equal volume of 0.1% bovine serum albumin (BSA) was used in control mice. The recovery of the corneal epithelial injury was imaged at 24, 40 and 48 hours by applying 1% fluorescein solution to the corneal surface and wounds photographed under diffuse cobalt blue light attached to a slit lamp bio-microscope (Nikon FS-3, Nikon) connected to a digital camera (Canon EOS 60D). The corneal epithelial defect areas were quantified by analyzing the images with Photoshop CS4 (Adobe). Corneas were harvested after one week for immunodetection of nerves. Possible growth of blood vessel into the cornea was monitored by slit lamp examination. […] The YFP fluorescent nerves were imaged with a fluorescence microscope at the site of pellet implantation and at a site 180 degrees opposite to the pellet. Images were analyzed using Neurolucida. […] Quantification of corneal nerves regeneration was obtained from corneal wholemount images traced and analyzed with Neurolucida 9 software. […] Central and peripheral cornea nerve densities were calculated and expressed as a percentage of control.

B1: recombinant mouse VEGF-B^186 (protein, listed as Homo sapiens)
chain: MSPLLRRLLLAALLQLAPAQAPVSQPDAPGHQRKVVSWIDVYTRATCQPREVVVPLTVELMGTVAKQLVPSCVTVQRCGGCCPDDGLECVPTGQHQVRMQILMIRYPSSQLGEMSLEEHSQCECRPKKKDSAVKPDRAATPHHRPQPRSVPGWDSAPGAPSPADITHPTPAPGPSAHAAPSTTSALTPGPAAAAADAAASSVAKGGA
notes: vascular endothelial growth factor B; recombinant mouse VEGF-B186 (R&D 767-VE-010)
For B1, the “corneal nerve regeneration into the injured zone” value (Vegf-b−/− mice) was “confined to the peripheral cornea” and the “corneal nerve regeneration into the injured zone” value (wild-type mice) was “enhanced nerve regeneration in both the central and peripheral corneas”.
